This note sets out measurements from the Immune Epitope Database (IEDB).

Common to all, as to experiment: IEDB peptide-MHC binding, purified MHC/direct/fluorescence; filed as Kd, often an IC50 or EC50 that approximates it; ≥ and ≤ were set here for values at or beyond the usual limits of such assays
The target of experiment [1] is HLA-A*23:01.
Experiment [2] concerns the target HLA-A*24:02.
The target in experiment [3] is HLA-A*24:03.
Experiment [4] has as its target HLA-A*30:01.
Experiment [5] concerns the target HLA-A*01:01.
Experiment [6] deals with HLA-A*02:01.
For experiment [7], the target named is HLA-A*03:01.
The target in experiment [8] is HLA-A*11:01.
In experiment [9] the target is HLA-A*26:01.
The target in experiment [10] is HLA-A*31:01.
In experiment [11] the target is HLA-A*69:01.
Experiment [12] deals with HLA-B*07:02.
Experiment [13] has as its target HLA-B*08:01.
The target of experiment [14] is HLA-B*15:01.
Experiment [15] has as its target HLA-B*27:05.
Experiment [16] concerns the target HLA-B*40:01.
In experiment [17] the target is HLA-B*58:01.
Experiment [18] concerns the target HLA-B*44:02. Particulars: source organism: Giardia lamblia ATCC 50803.
Experiment [19] concerns the target HLA-B*46:01. Particulars: source organism: Giardia lamblia ATCC 50803.
Experiment [20] has as its target HLA-C*05:01. To be noted: source organism: Giardia intestinalis.
Setting [21] is: source organism: Dengue virus 1 Singapore/S275/1990.
[22] abbreviates: source organism: Orthohantavirus hantanense.
Setting [23] is: source organism: Aggregatibacter actinomycetemcomitans.
Setting [24] is: source organism: Yersinia pestis Antiqua.
Where [25] appears, read: source organism: Yersinia pestis.
[26] abbreviates: source organism: Giardia lamblia ATCC 50803.

As to GFMNEDHWF, the Kd (as a rule, the concentration at which binding is half-saturated) in [1] (setting [21]) is 0.046 µM; in experiment [2] (setting [21]), 0.09 µM.
Regarding NYYAPRIQF, the Kd in experiment [1] (setting [22]) is 0.0059 µM; in experiment [3] (setting [22]), 0.0074 µM; in experiment [4] (source organism: Hantaan virus Q32), not below 20 µM.
Consider RSEVELCIY, for which the Kd in [5] (setting [23]) is 0.111 µM; in experiment [6] (setting [23]), not below 20 µM; in experiment [7] (setting [23]), not below 20 µM; in [8] (setting [23]) it was not below 20 µM; in [3] (setting [23]), not below 20 µM; in experiment [9] (setting [23]) it was not below 20 µM. Further, the Kd in experiment [4] (setting [23]) was not below 10 µM; in experiment [10] (setting [23]), not below 20 µM; in experiment [11] (setting [23]) it was not below 20 µM; in [12] (setting [23]), not below 20 µM; in experiment [13] (setting [23]), not below 20 µM; in experiment [14] (setting [23]), 6.28 µM. Moreover, the Kd in [15] (setting [23]) is not below 20 µM; in experiment [16] (setting [23]), not below 20 µM; in experiment [17] (setting [23]), 0.663 µM.
Regarding RYQRMTGGY, the Kd is not below 20 µM in [5] (setting [24]); not below 20 µM in experiment [6] (setting [24]); not below 20 µM in experiment [7] (setting [24]); 0.00621 µM in [3] (setting [25]); not below 20 µM in [9] (setting [24]); 2.34 µM in [4] (setting [25]). For the same sequence, the Kd in experiment [10] (setting [25]) is 0.388 µM; in experiment [11] (setting [24]) it was not below 20 µM; in experiment [12] (setting [24]), not below 20 µM; in experiment [13] (setting [24]), not below 20 µM; in [14] (setting [25]) it was 1.35 µM; in experiment [15] (setting [25]) it was 2.93 µM. Further, the Kd in [16] (setting [24]) and in experiment [17] (setting [24]) was not below 20 µM throughout.
On to WSDLNTTDF, for which the Kd in experiment [5] (setting [26]) is 0.156 µM; in experiment [6] (setting [26]) it was not below 20 µM; in [7] (setting [26]), not below 20 µM; in experiment [8] (setting [26]), not below 20 µM; in experiment [2] (setting [26]) it was not below 20 µM; in experiment [10] (setting [26]), not below 20 µM. The Kd in experiment [12] (setting [26]), in [14] (setting [26]), in experiment [15] (setting [26]), in experiment [16] (setting [26]), in [18] and in [19] was not below 20 µM each time. In addition, the Kd in experiment [17] (setting [26]) is not below 20 µM; in experiment [20], not above 0.001 µM.
